According to the DeepSol protein solubility set:

Assay: soluble on expression in E. coli; label from the status in PepcDB or PDB records

With “MVITKIVGHIDDLSHQIKKVDWLEVEWEDLNKRILRKETENGTDIAIKLENSGTLRYGDVLYESDDTLIAIRTKLEKVYVIKPQTMQEMGKMAFEIGNRHTMCIIEDDEILVRYDKTLEKLIDEVGVSYEQSERRFKEPFKYRGHQH” the “soluble on expression in E. coli” value was “soluble”.

With “GAEVDQATKPAEAKYYIAGTITDATTGQELTTAKVTLGDKSVTSSFNEQVNYKAEGYALVVSADGYYPVKRQVYLNQVSDGQTSVATVNVALVSVEAAVIPPVVPPTDPETDINEGEATKVADKAVEVAKPSESTVTDMLAGTTATPEEKKALDETLEMAGGMKVGETTPEVLADGSILAITPVKFTNPIQDAPAMVPYFYNEGCELTGDVKEVAAPVTRADGAVAADIQKAFLSNAAKALNMNAGFVQKIGYTRISVLNGYSILGYTIKGQLVSKKLTFLISGKYYEGIVSYQKSVMIYPNYYSHDSHDSHDSHGFNPNAGGGSND” the “soluble on expression in E. coli” value was “soluble”.

With “LKLPDMRDVVGQPEARFAAEVAAAGGHHMLMIGPPGSGKSMIAERIPSLLPELSPQQMIEATAVHSVVGRTFSGPVSRAPFISPHHNVSKAALLGGGSGSPLPGAISLAHHGVLFLDEVSEIPASILDSLRTPLEYGSIRIIRSRHDVTFPAQFQLILAANPCRCG” the “soluble on expression in E. coli” value was “not soluble”.

With “MTNIRVAIVGYGNLGRSVEKLIAKQPDMDLVGIFSRRATLDTKTPVFDVADVDKHADDVDVLFLCMGSATDIPEQAPKFAQFACTVDTYDNHRDIPRHRQVMNEAATAAGNVALVSTGWDPGMFSINRVYAAAVLAEHQQHTFWGPGLSQGHSDALRRIPGVQKAVQYTLPSEDALEKARRGEAGDLTGKQTHKRQCFVVADAADHERIENDIRTMPDYFVGYEVEVNFIDEATFDSEHTGMPHGGHVITTGDTGGFNHTVEYILKLDRNPDFTASSQIAFGRAAHRMKQQGQSGAFTVLEVAPYLLSPENLDDLIARDV” the “soluble on expression in E. coli” value was “soluble”.

With “MSLAVEKITMPKLGESVTEGTISSWLVKPGDTVEKYDAIAEVLTDKVTAEIPSSFSGTIKEILAEEDETLEVGEVICTIETADAGSSEPVAEVEETETKAPEKQETKQVKLADAPASGRFSPAVLRIAGENNIDLSTVEGTGKGGRITRKDLLQVIENGPVAKREEMKSAPQEKAAMPTPPVRSAAGDKEIPINGVRKAIAKHMSVSKQEIPHAWMMVEVDATGLVRYRNAVKDSFKKEEGYSLTYFAFFIKAVAQALKEFPQLNSTWAGDKIIEHANINISIAIAAGDLLYVPVIKNADEKSIKGIAREISELAGKARNGKLSQADMEGGTFTVNSTGSFGSVQSMGIINHPQAAILQVESIVKRPVIIDDMIAVRDMVNLCLSIDHRILDGLLAGKFLQAIKANVEKISKENTALYEGHHHHHH” the “soluble on expression in E. coli” value was “soluble”.

For “MEYLFLRRKRTTATSERQKTLLFKAAERQWKEEFAGKETDIRKVDCNIYKGILYQLEIRQVFLDTSLSLKKLSALLETNQTYLSNVVNKYFGCNLKELVNTYRVEYAKELLCSRRCALTELPCSCGFASKSAFYSAFSRIVGVSPLSYQTQERRRHHLQAVNLEHHHHHH”, the “soluble on expression in E. coli” value was “not soluble”.

For “INPPQHKQFQNLMPMQPRRYPEGKVLPDREREFPNTFPEHSSPLLLPKQELDMRWRGPHPLPGY”, the “soluble on expression in E. coli” value was “not soluble”.

With “DLFFGWGRKKSGLKAMNLAKKYKAKFILLEDGFIRSLNLGVENSPSFSMVKDDIGIYYDATMPSKLENLLNTCEFKDEEIKQAKKAIELIKKYKISKYNNNLDIPDNYFQKDEKRVLIITQTANDASLEFGLAKDFKTLDMIKDAIKENPKSTIYIKIHPDVLSGKKQSDLDLNSLPKECILITENFNPIALLEFFDKVYTKTSGMGFEALMQECECICYGMPFYAGWGLTKDKLECKRRMQKRSLEEVFYAAYILYAEY” the “soluble on expression in E. coli” value was “not soluble”.

In the case of “MGSDKIHHHHHHMMRLIRDLAQRPNPPDVGFQFVTDEEIGGRHGTGRLRDEGWHCDFMLCLEPTDLGIMFEHKGGMWAQLRIPGRAAHGSRPWEGDNPVYRLMQGIQAISERYPPPTGPHDWRTSVTPTEIRMGAGSRNQVPAEALVTFDIRWTADTTPETIQADLAAAFPDAEFISVMASAGLRTDPEHQEVGRIADIVERHIGHTPRFYREHFATDARYYSHIGIPAICLGPVGAGLHSAEEWVEIASLTSLYQIILDYIDTM”, the “soluble on expression in E. coli” value was “not soluble”.

For “MNICMRNGYEQFSLTSPGTSDLEIGGSFWKDEPDTKYLCLDSPVEQRQHQPPMAVCAGCRLEISDRYFLRVNPNLEFHAQCLKCVQCSRPLDENQTAFVKNGQTYCRDDYRRLFTTRCSRCHGDFDKTDLVMRAGPQNVFHLNCFACVACEKRLQTGEEFQIKNNSLYCRSDCRGLDNPDTSASVPDYSKLNNNNNNDNNNSSSNFDEDEWDEERSTLTSLDNNTSSPLGSPKSDGVRTPLFGHHNSGSGGSTSSCGKKKKDKQATRVRTVLNENQLKILRDCYSINSRPDATLKERLVEMTGLSARVIRVWFQNKRCKDKKRQIQITENRLNSEREEVLNRVRVNGIGPLMVQPATPHIDNTLGGPIDIQHFAQWNGTPPPPPPQYGNPMMFNSPSTFDVSVILAPVAPNVTSPSEALGPLGASVFPHFSPQHAPFTATSHDISSPAPCGE”, the “soluble on expression in E. coli” value was “not soluble”.

In the case of “MELMIGRVVKSHGIRGEVAIEVTTEEPEIRFAQGEVLNGRQGGKEHSLTIASVRPHQNRLLVKFKEIADRTAADSLRGTRFFAAPLDDDVDDGFYDHELEGLAVIHGEEKIGEVSGVIHGPAQSLLEVTLESGKEVLIPFVHDIVPEVDLDAGTCVITPPEGLLEL”, the “soluble on expression in E. coli” value was “not soluble”.

In the case of “MSLAREPRNIGASVRARLLDRARAERSDFQILLTRYALERLLYRLSASPHRDRFILKGAMLFVTWIADPFRPTRDLDLLGHGDRDTEAIAETFRAICAQPVVDDGVTFDVAALMATPIREELEYGGVRVRTTATIAGARIPIQVDIGFGDAITPAAVEIDYPTLLDAPTPHLRAYPVETVVAEKFAALVTLGVANSRLKDFYDLWVISRTFELRRAALAEAIQRTFERRGTVLPSVVPVGLTDEFAETWAAQWRAFLERDRMAAAPDAFAVTVADLRLFLMPLVVGLKEERIWPPSGPWSPGAAIDEAEGHHHHHH”, the “soluble on expression in E. coli” value was “soluble”.

With “MGSDKIHHHHHHMKSIKAADLHAAVRDMIMDANRVLGKDVYNAFQTCMQQETTDSGKEVLRQLLENADLAAQSGLALCQDTGVAVFFVEMGEEVRMEGGGLKETLNAAMVEAYNKAFLRKSMCHPLTRKNTGDNTPAVIHVELVPGDTLKVRYMAKGGGSENMSRCTMLTPAQGWQGIKDFVVRRMAEAGPNPCPPTIVGVGIGGTFDLAPSLAKGALFRRVDDVHPDPEIAAMEKELLDEINALGIGPMGLGGKTTCLAVKIAMHPCHIASLPLAVNVQCHSSRHKEVVF” the “soluble on expression in E. coli” value was “not soluble”.

With “MSLGQGSILTKANTINNMEYVTEVFGAIPTEEQVSYQKEELTAFIHFGVNTFTGREWGDGTENPEIFNPTNLDADQWVKTLAEAGFGRVILTAKHHDGFCLWDSAYTKHDVASSPWKNGKGDVVKEVLEACAKYNIKFGVYLSPWDQNSEHYGDGNGGDYNEFYMNQLRELLTNYGPIAEVWMDGAKGSNVKQEYNFEEWFALIKKLQPECLIFSPQGPDIRWIGNEKGYAGEPCWSTIDIEKMKERENPTYLNNGEEGGPNWIVGESDVSIRPGWFYHESQDNEVKSLEKMMDIYFKSIGRNSVLLLNVPPNKEGKLHENDVNRLKKFGETIKELFNDDLALNKEVIVDGFANNDETYGANKIVDGDYDTYWAPDNSSKTGTIEIDLGGSKEFDVISLQEYIPLGQRVSSFNVEVLQGENWNKVYEGKTIGYKRLVRIAPTKGEKIRINITGSLEVPLINNVGVYKQPISIEEGHHHHHH” the “soluble on expression in E. coli” value was “soluble”.

In the case of “MEMILEEKDASDWIYRGEGGANLVLAYAGSSPLFVGKVIRIQKARRNDKAIKNANGVVSVLTSDEQHLWRENNELISSPNKEVLEQRYVKNVIIPLLGPKHVDAGVRVSVSKEFLECVDKKVTKQRPLWRVNAANVDTSHDSALILNDHSLFSQGISSGGDCISVEIKPKCGFLPTSRFIGKENMLKTSVSRFKMHQLLKLEYNEISAASAYDPLDLFSGSKESVLEAIKALYSTPQNNFRVFLNGSLILGGSGESTGRTSPEIGYAFEDALKGFIQSEDGHRTECFLQLVSDAVYGSGVLDRLLEIQKLDKLDIEGAIHSYYDLINQPCPICKEGKPLEAELSLHALPLDESLKIVKEYLIAATAKDCSIMISFQSRNAWDSEPSGDYVSLKPTNQTFDYKVHFIDLSLKPLKRMESYYKLDKKIISFYNRKQKAENTAEQIGNSKPSHS”, the “soluble on expression in E. coli” value was “soluble”.

For “MGRGEHKEHKRKRSRSKERKRSRSRSPRGSREHREHRDRDRDRERRRERDTDREKTRDREKQRDAEKKKEKESKTAIFEMEESRNDTEEVMKMKEAELLQGVERRRRNVEKWRAQKKKEELDLQSEQSDEKSEKKPWNLEDEDDEDEFDIKNEGISEENPVKMEEKVEKMDTDDEEDPLDAFMKEIATKNAKKTGNSTQKASGIVTIVQEEKPEPEKGQVLENEDNMDMVIDDFDIETAAASLCHKGRMLAQTDHSKVYYRKFKKNFYIETEEIRRMTKAEVKAYREELDSITVKGIDCPKPIKTWAQCGVNLKMMNVLKKFEYSKPTSIQAQAIPSIMSGRDVIGIAKTGSGKTLAFLLPMFRHILDQPELEEGDGPIAVILAPTRELAMQTYKEANKFAKPLGLKVACTYGGVGISEQIADLKRGAEIVVCTPGRMIDVLAANSGKVTNLRRVTYLVLDEADRMFDKGFEPQIMKVVNNIRPDKQTVLFSATFPRHMEALARKVLDKPVEILVGGKSVVCSDITQNAVICAEHQKFLKLLELLGMYYEEGSSIVFVDKQEKADDIVDQLMRTGYNSVAPLHGGIDQHDRDSSIADFKTGVIKVLVATSVAARGLDVKNLILVVNYDCPNHYEDYVHRVGRTGRAGRKGYAYTFVLPEHQEKMAGEICRAFETAGCKPPADLKAMFERFKSEMAAEGKEVKLGGKGFEGSGYKYDEGEAEADANKKRMTRLTAQLQRGGTQARYKV”, the “soluble on expression in E. coli” value was “not soluble”.

For “MGSDKIHHHHHHMNIKHLDVLRTLLATGSTIAAAKAMGLSQSGVSRMLQQLESDLAITLFARDKGRLIPTPEATVLGRDAQNVLLAIERMSGHAEDLRNGSAGPEIVRIGLPSSMWENFAPAMLIDYVRDFPGVRIETFFETTTAITKLVEERVIDLGFLRIEGETGPGIAIDKVASGESVCVVPKDHSLAELPEITVKHLRNVPLILIGRQRPNRMALDQAFQRAGVKQMVKIETHTNSSACSYVAHGLGVSIISSFYANLYRHLPVVYRPFVPRATQEFGLVRAAGVPLSIAAQALSDALKKQIRLSQEEQ”, the “soluble on expression in E. coli” value was “not soluble”.

In the case of “GEKVDFDDIQKKRQNKDLIELQALIDSHFEARRKEEEELVALKERIEKRRAERAE”, the “soluble on expression in E. coli” value was “soluble”.

For “MSLGSGHIRAAEALQKFVVQKYPKSKTLIVDTFKYINPLIHTVVVDGYLNIVKYVPEIYGGLYRMSEHIKNIDRMSRGFSNLLTPKIHRLIQSFKPSIIVCTHPFPLQMIAHLKKHYNLDVPSIAIVTDFVNHPFWFQNNIEAYIVAHDYIKRDMIECGISEDRIFTYGLPVAPEFLKLEHHHHHH”, the “soluble on expression in E. coli” value was “not soluble”.

For “STLYEKLGGTTAVDLAVDKFYERVLQDDRIKHFFADVDMAKQRAHQKAFLTYAFGGTDKYDGRYMREAHKELVENHGLNGEHFDAVAEDLLATLKEMGVPEDLIAEVAAVAGAPAHKRDVLNQ”, the “soluble on expression in E. coli” value was “soluble”.
